The target of the test is unmodified, wild-type (WT) human FcRn (neonatal Fc receptor) (human) (UniProt P55899). The experiment in a line: FcRn affinity chromatography with pH monitor.

Results on 8 substances are retold here after publication PMC10443974.

UniProt P55899, sequence (P55899 24-297, chain 1 of 2): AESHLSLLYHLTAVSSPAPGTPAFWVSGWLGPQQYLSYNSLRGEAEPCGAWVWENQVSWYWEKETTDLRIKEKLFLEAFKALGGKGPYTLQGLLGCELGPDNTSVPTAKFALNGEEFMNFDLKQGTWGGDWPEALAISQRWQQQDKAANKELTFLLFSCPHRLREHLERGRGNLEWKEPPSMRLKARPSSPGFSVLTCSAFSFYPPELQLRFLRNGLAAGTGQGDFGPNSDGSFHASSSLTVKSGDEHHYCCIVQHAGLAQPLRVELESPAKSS
UniProt P55899, sequence (P61769 21-119, chain 2 of 2, further chain): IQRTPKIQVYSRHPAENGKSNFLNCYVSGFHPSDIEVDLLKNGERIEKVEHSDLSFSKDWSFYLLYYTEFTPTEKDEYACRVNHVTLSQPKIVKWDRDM

On to “NIST mAb (reference material RM8671) (antibody)”, for which the FcRn dissociation pH (mean) was found to be 7.22 pH.

Turning to adalimumab (antibody), the FcRn dissociation pH (mean) turned out to be 7.39 pH.

In the case of briakinumab (antibody), the FcRn dissociation pH (mean) was found to be 7.81 pH.

Substance cetuximab (antibody) showed a FcRn dissociation pH (mean) of 7.25 pH.

As to cusatuzumab (antibody), the FcRn dissociation pH (mean) came to 7.12 pH.

Substance durvalumab (antibody) showed a FcRn dissociation pH (mean) of 7.28 pH.

margetuximab (antibody) showed a FcRn dissociation pH (mean) of 7.34 pH.

The substance rituximab (antibody) returned a FcRn dissociation pH (mean) of 7.43 pH.
